The target of one experiment is T1, ZO-1 d2 (Homo sapiens, UniProt Q07157, DEL264-264).
T1 construct: made in house; host or cells: E. coli (DH5alpha, BL21 or JM109)
T1 sequence (Q07157 with tags, fused parts or gaps DEL264-264): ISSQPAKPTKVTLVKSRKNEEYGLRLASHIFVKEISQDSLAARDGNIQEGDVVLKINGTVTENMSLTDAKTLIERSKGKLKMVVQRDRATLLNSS
Put plainly: G assay, peptide binding to GST-PDZ fusion (Table 11). To be noted: Table 11, titrations or binding assays.

In the next experiment the target is T2, INADL d3 (Homo sapiens, UniProt Q8NI35).
T2 construct: made in house; host or cells: E. coli (DH5alpha, BL21 or JM109)
T2 sequence (Q8NI35 with tags, fused parts or gaps): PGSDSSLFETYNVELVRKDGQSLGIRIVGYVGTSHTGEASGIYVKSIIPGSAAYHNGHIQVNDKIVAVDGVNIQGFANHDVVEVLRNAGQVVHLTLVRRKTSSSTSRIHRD
The description is as above. To be noted: Table 11, titrations or binding assays.

No end group written: not given here. *: point of attachment. Biotin = O=C1N[C@H]2[C@H](CS[C@H]2CCCCC(=O)*)N1

Description for INADL d3: (§1) The binding of labeled PL peptide (e.g., as listed in TABLE 2 and TABLE 4) to this surface is then measured. In a preferred embodiment, the assay is carried out as follows:
(§2) (1) A PDZ-domain polypeptide is bound to a surface, e.g. a protein binding surface. In a preferred embodiment, a GST/PDZ fusion protein containing one or more PDZ domains is bound to a polystyrene 96-well plate. […] In one embodiment, the GST/PDZ fusion protein is bound via an anti-GST antibody that is coated onto the 96-well plate. Adequate binding to the plate can be achieved when:
(§3) (2) Biotinylated PL peptides are allowed to react with the surface by addition of 50 μl per well of 20 μM solution of the biotinylated peptide in PBS/BSA for 10 minutes at 4° C., followed by an additional 20 minute incubation at 25° C. The plate is washed 3 times with ice cold PBS.
(§4) (3) The binding of the biotinylated peptide to the GST/PDZ fusion protein surface can be detected using a variety of methods and detectors known to one of skill in the art. In one embodiment, 100 μl per well of 0.5 μg/ml streptavidin-horseradish peroxidase (HRP) conjugate dissolved in BSA/PBS is added and allowed to react for 20 minutes at 4° C. The plate is then washed 5 times with 50 mM Tris pH 8.0 containing 0.2% Tween 20, and developed by addition of 100 μl per well of HRP-substrate solution (TMB, Dako) for 20 minutes at room temperature (RT). The reaction of the HRP and its substrate is terminated by addition of 100 μl per well of 1 M sulfuric acid, and the optical density (O.D.) of each well of the plate is read at 450 um.
(§5) (4) Specific binding of a PL peptide and a PDZ domain polypeptide is determined by comparing the signal from the well(s) in which the PL peptide and PDZ domain polypeptide are combined, with the background signal(s). […] Typically a specific or selective reaction will be at least twice background signal, more typically more than 5 times background, and most typically 10 or more times the background signal. […] Correspondingly, a statistical test (e.g. a T-test) comparing repeated measurements of the signal with -repeated measurements of the background will result in a p-value <0.05, more typically a p-value <0.01, and most typically a p-value <0.001 or less. As noted, in an embodiment of the G assay, the signal from binding of a given PL peptide to immobilized (surface bound) GST polypeptide alone is one suitable negative control (sometimes referred to as B1). Because all measurement are done in multiples (i.e. at least duplicate) the arithmetic mean (or, equivalently, average.) of several measurements is used in determining the binding, and the standard error of the mean is used in determining the probable error in the measurement of the binding. The standard error of the mean of N measurements equals the square root of the following: the sum of the squares of the difference between each measurement and the mean, divided by the product of (N) and (N−1). Thus, in one embodiment, specific binding of the PDZ protein to the platebound peptide is determined by comparing the mean signal (“mean S”) and standard error of the signal (“SE”) for a particular PL-PDZ combination with the mean B1.
Description for ZO-1 d2: as §1, §2, §3, §4, §5

Turning to PSSRASSRASSRPRPDDLEI, the PDZ domain bound entry with ZO-1 d2 is listed as “ZO-1 D2”.

As for YGRKKRRQRRRDKELEVLSL, the PDZ domain bound entry on ZO-1 d2 is on record as “ZO-1 D2”. As to RSGATIPLVGQDIIDLQTEV, the PDZ domain bound entry with INADL d3 was “INADL D3”. As for “YVYSRVKNLNSSEGVPDLLV (Biotin-YVYSRVKNLNSSEGVPDLLV)”, the PDZ domain bound entry with ZO-1 d2 is reported as “ZO-1 D2”. In the case of STDNLVRPFMDTLASHQLYI, in the experiment with INADL d3, the PDZ domain bound result is “INADL D3”.

In the case of “YGRKKRRQRRRAVAAASANL (Biotin-YGRKKRRQRRRAVAAASANL)”, the PDZ domain bound entry with ZO-1 d2 is listed as “ZO-1 D2”. In the case of FHSKTAGANTTDKELEVLSL, the PDZ domain bound result is given as “INADL D3” with INADL d3 and “ZO-1 D2” with ZO-1 d2. For the sequence “HAMNAAPRAMENAPALRTSH (Biotin-HAMNAAPRAMENAPALRTSH)”, the PDZ domain bound result in the experiment with INADL d3 is “INADL D3”. With RELVDRGEVRQFTLRHWLKV, the PDZ domain bound entry with INADL d3 is “INADL D3”; in the experiment with ZO-1 d2, “ZO-I D2”. In the case of SLIGPVQKEYQRELGKLSSP, the PDZ domain bound result in the experiment with INADL d3 is “INADL D3”. As for “YGRKKRRQRRRARGDRKRWL (Biotin-YGRKKRRQRRRARGDRKRWL)”, the PDZ domain bound result in the experiment with ZO-1 d2 is “ZO-1 D2”. “VPSDNIDSQGRNASTNDSLL (Biotin-VPSDNIDSQGRNASTNDSLL)”: the PDZ domain bound result with INADL d3 is given as “INADL D3”. Consider YGRKKRRQRRRSEGVPDLLV, for which the PDZ domain bound result on ZO-1 d2 is listed as “ZO-1 D2”. For YGRKKRRQRRREYLGLDVPV, the PDZ domain bound result at INADL d3 is “INADL D3”; at ZO-1 d2, “ZO-1 D2”.

For “ENLELPVNPSSVVSERISSV (Biotin-ENLELPVNPSSVVSERISSV)”, the PDZ domain bound result with INADL d3 is on record as “INADL D3”. Still for that read-out and setting: the result for TQGFPGPATWRRISSLESEV reads “INADL D3”. As for ELLQFCRTPNPALKNGQYWV, the PDZ domain bound result is “INADL D3” with INADL d3 and “ZO-1 D2” in the experiment with ZO-1 d2. Turning to YGRKKRRQRRRGASADSTQA, on ZO-1 d2, the PDZ domain bound entry is recorded as “ZO-1 D2”. On to “HSCCNRARQERLQRRRETQV (Biotin-HSCCNRARQERLQRRRETQV; cysteine pairing not given here)”, for which the PDZ domain bound entry is recorded as “INADL D3” in the experiment with INADL d3 and “ZO-1 D2” with ZO-1 d2. On to YGRKKRRQRRRAVAATSANL, for which the PDZ domain bound result in the experiment with INADL d3 is “INADL D3”; with ZO-1 d2, “ZO-1 D2”. On to “YSATYSELEDPGEMSPPIDL (Biotin-YSATYSELEDPGEMSPPIDL)”, for which the PDZ domain bound result with INADL d3 was “INADL D3”. In the case of LQFHRGSRAQSFLQTETSVI, the PDZ domain bound result with INADL d3 was “INADL D3”.

As for “VDPNSPAAKKKYVSYNNLVI (Biotin-VDPNSPAAKKKYVSYNNLVI)”, the PDZ domain bound entry with INADL d3 is “INADL D3”; in the experiment with ZO-1 d2, “ZO-1 D2”. Turning to QDFRRAFRRILARPWTQTAW, the results for the PDZ domain bound entry with INADL d3 and in the experiment with ZO-1 d2 were “INADL D3” and “ZO-1 D2”, respectively. For HDFRRAFKKILARGDRKRIV the same measures were “INADL D3” and “ZO-1 D2”. On to “YGRKKRRQRRRARSDRGIWA (Biotin-YGRKKRRQRRRARSDRGIWA)”, for which the PDZ domain bound entry with ZO-1 d2 is listed as “ZO-1 D2”. With LASKSAEEGKQIPDSLSTDL, the PDZ domain bound result in the experiment with INADL d3 was “INADL D3”. Turning to HHLVAQRDIRQFQLQHWLAI, the PDZ domain bound entry is given as “INADL D3” with INADL d3 and “ZO-1 D2” with ZO-1 d2. In the same order, the values of ILNSIQVMRAQMNQIQSVEV are “INADL D3” and “ZO-1 D2”.

For DFRPSFKHILFRRARRGFRQ, the figures for the PDZ domain bound entry with INADL d3 and with ZO-1 d2 were “INADL D3” and “ZO-1 D2”, respectively. Take SSSRRDSSWSETSEASYSGL: in the experiment with ZO-1 d2, the PDZ domain bound result is “ZO-1 D2”. For KHSRKSSSYSSSSTTVKTSY, the PDZ domain bound entry is “INADL D3” in the experiment with INADL d3 and “ZO-1 D2” in the experiment with ZO-1 d2. For YGRKKRRQRRRNDNIALLVQ, the PDZ domain bound result on ZO-1 d2 is given as “ZO-1 D2”. Consider “GRWTGRAMSAWKPTRRETEV (Biotin-GRWTGRAMSAWKPTRRETEV)”, for which the PDZ domain bound entry with INADL d3 was “INADL D3”. Turning to RRRRRRRGNTTDKELEVLSL, the PDZ domain bound entry with ZO-1 d2 is listed as “ZO-1 D2”.

For the sequence “VHKVRNKFKAKCSLCRLYII (Biotin-VHKVRNKFKAKCSLCRLYII; cysteine pairing not given here)”, the figures for the PDZ domain bound result in the experiment with INADL d3 and in the experiment with ZO-1 d2 were “INADL D3” and “ZO-1 D2”, respectively. On to RRRRRRRGTNPAVAATSANL, for which, in the experiment with ZO-1 d2, the PDZ domain bound result is given as “ZO-1 D2”. As to PIPAGGCTFSGIFPTLTSPL, the PDZ domain bound result in the experiment with INADL d3 was “INADL D3”. As for “LNSCSNRRVYKKMPSIESDV (Biotin-LNSCSNRRVYKKMPSIESDV)”, the PDZ domain bound entry with INADL d3 is reported as “INADL D3”; with ZO-1 d2, “ZO-I D2”. Regarding “YGRKKRRQRRRQDEEEGIWA (Biotin-YGRKKRRQRRRQDEEEGIWA)”, the PDZ domain bound entry in the experiment with ZO-1 d2 is listed as “ZO-1 D2”. Still for that read-out and setting: the result for “YGRKKRRQRRRAVAATYSNL (Biotin-YGRKKRRQRRRAVAATYSNL)” reads “ZO-1 D2”.

As to SSKSKSSEESQTFFGLYKL, the figures for the PDZ domain bound result with INADL d3 and with ZO-1 d2 were “INADL D3” and “ZO-1 D2”, respectively.

Consider “TTNNNPNSAVNIKKIFTDV (Biotin-TTNNNPNSAVNIKKIFTDV)”, for which the PDZ domain bound result in the experiment with INADL d3 is listed as “INADL D3”; with ZO-1 d2, “ZO-1 D2”. For PGQPPKVKSEFNSYSLTGYV, the PDZ domain bound entry with INADL d3 is “INADL D3”. “YGRKKRRQRRRARGDRKRWA (Biotin-YGRKKRRQRRRARGDRKRWA)”: the PDZ domain bound entry with ZO-1 d2 is “ZO-1 D2”.

For the sequence LAVLAYSITLVMLWSIWQYA, the PDZ domain bound entry in the experiment with INADL d3 is given as “INADL D3”; with ZO-1 d2, “ZO-1 D2”. For “YGRKKRRQRRRARGDRKRIV (Biotin-YGRKKRRQRRRARGDRKRIV)”, the PDZ domain bound result in the experiment with ZO-1 d2 is recorded as “ZO-1 D2”.

As to “NYKLNTDHAGSNDNIALLVQ (Biotin-NYKLNTDHAGSNDNIALLVQ)”, the PDZ domain bound result with ZO-1 d2 was “ZO-1 D2”. As to KKKKQPGNSTKESESTNSVRLML, the PDZ domain bound result with INADL d3 is listed as “INADL D3”; with ZO-1 d2 it was “ZO-1 D2”.

Regarding “YGRKKRRQRRRKLSSIESDV (Biotin-YGRKKRRQRRRKLSSIESDV)”, the PDZ domain bound entry in the experiment with ZO-1 d2 is listed as “ZO-1 D2”. Still for that read-out and setting: then TEGNESSEATSPVNAIYSLA, with “ZO-1 D2”.
